Reference: paper doi:10.1101/2021.09.06.459192 (bioRxiv, 2021)

Molecular target: Rrp5 full length, recombinant (Rrp5_FL) (S. cerevisiae, UniProt Q05022 1-1729)
Assay: pull-down

Sequence of Rrp5 full length, recombinant (Rrp5_FL) (Q05022 whole entry): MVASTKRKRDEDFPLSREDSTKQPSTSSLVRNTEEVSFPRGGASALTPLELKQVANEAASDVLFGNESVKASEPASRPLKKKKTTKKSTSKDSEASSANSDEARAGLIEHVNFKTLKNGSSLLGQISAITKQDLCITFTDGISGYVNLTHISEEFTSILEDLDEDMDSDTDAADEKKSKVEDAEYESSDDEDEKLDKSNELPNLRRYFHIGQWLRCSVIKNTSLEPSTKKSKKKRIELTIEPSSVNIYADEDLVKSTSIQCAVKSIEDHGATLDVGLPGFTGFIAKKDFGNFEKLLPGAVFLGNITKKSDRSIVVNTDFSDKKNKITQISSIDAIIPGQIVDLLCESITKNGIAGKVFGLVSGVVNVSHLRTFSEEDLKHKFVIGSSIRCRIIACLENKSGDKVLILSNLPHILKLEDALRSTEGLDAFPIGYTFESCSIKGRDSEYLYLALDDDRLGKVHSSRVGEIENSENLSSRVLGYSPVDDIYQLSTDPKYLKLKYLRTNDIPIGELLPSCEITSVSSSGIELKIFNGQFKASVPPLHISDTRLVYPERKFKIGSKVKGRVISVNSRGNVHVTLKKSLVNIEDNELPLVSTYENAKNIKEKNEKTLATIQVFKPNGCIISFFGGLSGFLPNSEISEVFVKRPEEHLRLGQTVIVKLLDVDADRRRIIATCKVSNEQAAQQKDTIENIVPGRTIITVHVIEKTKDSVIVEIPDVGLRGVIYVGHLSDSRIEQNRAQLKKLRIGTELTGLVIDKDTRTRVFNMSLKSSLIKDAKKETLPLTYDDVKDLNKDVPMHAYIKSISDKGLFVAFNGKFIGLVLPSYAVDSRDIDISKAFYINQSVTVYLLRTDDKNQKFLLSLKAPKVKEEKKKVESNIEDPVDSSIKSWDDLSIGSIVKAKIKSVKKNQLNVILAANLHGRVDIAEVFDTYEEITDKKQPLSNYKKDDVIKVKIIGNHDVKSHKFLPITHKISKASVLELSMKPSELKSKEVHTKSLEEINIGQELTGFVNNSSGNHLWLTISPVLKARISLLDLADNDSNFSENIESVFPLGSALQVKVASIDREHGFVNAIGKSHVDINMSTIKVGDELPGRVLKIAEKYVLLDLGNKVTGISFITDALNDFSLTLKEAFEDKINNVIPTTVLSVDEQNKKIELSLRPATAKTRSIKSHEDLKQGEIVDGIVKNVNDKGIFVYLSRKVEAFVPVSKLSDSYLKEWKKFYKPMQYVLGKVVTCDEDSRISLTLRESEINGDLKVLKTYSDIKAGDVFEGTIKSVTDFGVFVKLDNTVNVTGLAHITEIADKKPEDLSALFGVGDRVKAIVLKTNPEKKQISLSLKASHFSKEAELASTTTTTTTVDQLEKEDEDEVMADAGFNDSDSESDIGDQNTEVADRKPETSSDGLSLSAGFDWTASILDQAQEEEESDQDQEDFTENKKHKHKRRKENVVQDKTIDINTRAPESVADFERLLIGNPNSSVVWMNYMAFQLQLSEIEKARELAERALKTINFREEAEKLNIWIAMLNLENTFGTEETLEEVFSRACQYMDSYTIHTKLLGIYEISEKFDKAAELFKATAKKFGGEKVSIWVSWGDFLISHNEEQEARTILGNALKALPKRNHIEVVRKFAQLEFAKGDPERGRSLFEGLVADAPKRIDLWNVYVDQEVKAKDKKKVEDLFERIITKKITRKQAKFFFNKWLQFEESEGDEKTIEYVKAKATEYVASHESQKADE

B1: MBP-Rrp36, recombinant (natural protein, S. cerevisiae, UniProt Q12481 1-300, looked up)
chain: MSYYFKNLKPDLNSDVEEDDGNLLESIMANKSKREIDEQESSDDELKTLSFGSLKKAETVIDEEDFKDTKPVHKKPITTTYREESFDEDEDSEDQSDEDAGFFEEDSEDETHHGQKVPKKKSKHAPVEQSSKKRVPRVRNIPGLEIPRNKRSNLYQDIRFDKSTGKALDSSIIRKRYQFLDEYREKEIDELQKLLQERKFLSKIDQGEREEMEQRLKSMKSRLQSMKNKDLEREILKEYENDMNKNNNTRYHLKKSEKRKVVQKWKFDHMKAKQREKVMERKRKKRLGKEFKQFEFHNRR
  binding result: binds

B2: MBP-Krr1, recombinant (natural protein, S. cerevisiae, UniProt P25586 1-316, looked up)
chain: MVSTHNRDKPWDTDDIDKWKIEEFKEEDNASGQPFAEESSFMTLFPKYRESYLKTIWNDVTRALDKHNIACVLDLVEGSMTVKTTRKTYDPAIILKARDLIKLLARSVPFPQAVKILQDDMACDVIKIGNFVTNKERFVKRRQRLVGPNGNTLKALELLTKCYILVQGNTVSAMGPFKGLKEVRRVVEDCMKNIHPIYHIKELMIKRELAKRPELANEDWSRFLPMFKKRNVARKKPKKIRNVEKKVYTPFPPAQLPRKVDLEIESGEYFLSKREKQMKKLNEQKEKQMEREIERQEERAKDFIAPEEEAYKPNQN
  binding result: binds
